Laboratory results: patent US20160257732A1
Substitutions are numbered along the chain they refer to.

B1: Antibody 8 (antibody, V domains shown)
VH: QVQLQQSGPGLVKPSQTLSLTCVISGDTVSSNRATWNWMRQSPLRGLEWLGRTYYRSKWYNDYAVSVKSRVVINPDTSKNQVSLQLNTVTPDDSGVYFCARGGHITVFGVNIDAFDIWGLGTKVTVSS
VL: DIQMTQSPSSLSASVGDRVTISCRASQRLNSYLHWYQQTPGQAPKLLIYATSTLQSGVSPRFSGSGSGTDFTLTISSLQPEDVATYYCQLSRTFGHGTKVEIK
B2: Antibody 5 (antibody, V domains shown)
VH: QVQLQQSGPGLVKPSQTLSLTCAISGDRVSSNSAVWNWIRQSPSRGLEWLGRTYYRSKWYYDYAESVKSRIVIDPDTSKNQVSLQLNSVTPEDSAIYYCARGGHITVFGLNIDAYDIWGQGAMVTVSS
VL: DIQMTQSPSSLSASVGDRVTISCRAQSLSSYLHWYQQKPGQPPKLLIYAATTLQSGVPSRFSGSGSGTDFTLTISTFQAEDVATYYCQQSRTFGQGTKVEIK
B3: Antibody 6 (antibody, V domains shown)
VH: B2 VH with V107E
VL: B2 VL
B4: Antibody 10 (antibody, V domains shown)
VH: QVQLQQSGPGLVKPSQTLSLTCAISGDSVSSNSATWNWIRQSPSRGLEWLGRTYYRSKWYNDYADFLKRRITINPDTSNNEVSLRLTSVTPDDTALYYCARGGHITVFGVNIDAFDVWGQGTMVTVSS
VL: DIQMTQSPSSLSASVGDRITISCRTSQSLRSYLHWYQQKPGKAPKLLIYASSTLQSGVPSRFSGSGSGTDFTLTISNLQPEDFATYYCQLSRTFGQGTKVEIK

Tests used:
[1] = target: recombinant HA (rHA), subtype H2 (A/Swine/MO/06 (H2N3)) (influenza A virus); assay: ELISA, coated rHA
[2] = target: recombinant HA (rHA), subtype H3 (A/Perth/16/09 (H3N2)) (influenza A virus); assay: ELISA, coated rHA
[3] = target: recombinant HA (rHA), subtype H5 (A/Vietnam/1203/04(H5N1)) (influenza A virus); assay: ELISA, coated rHA
[4] = target: recombinant HA (rHA), subtype H6 (A/teal/HK/W312/97(H6N1)) (influenza A virus); assay: ELISA, coated rHA
[5] = target: recombinant HA (rHA), subtype H7 (A/Netherlands/219/03(H7N7)) (influenza A virus); assay: ELISA, coated rHA
[6] = target: recombinant HA (rHA), subtype H9 (A/chicken/HK/G9/97(H9N2)) (influenza A virus); assay: ELISA, coated rHA
[7] = target: His-tagged HA subtype H1 (A/California/7/04 (H1N1)) (influenza A virus); assay: Octet BLI, His-tagged HA on anti-His sensors
[8] = target: His-tagged HA subtype H3 (A/Perth/16/09 (H3N2)) (influenza A virus); assay: Octet BLI, His-tagged HA on anti-His sensors

Binder	EC50 [1] [µg/mL]	EC50 [2] [µg/mL]	EC50 [3] [µg/mL]	EC50 [4] [µg/mL]	EC50 [5] [µg/mL]	EC50 [6] [µg/mL]	Kd [7] [pM]	koff [7] [s⁻¹]	kon [7] [M⁻¹ s⁻¹]	Kd [8] [nM]	koff [8] [s⁻¹]	kon [8] [M⁻¹ s⁻¹]
B1	0.058	0.067	0.044	0.091	0.015	> 6	–	–	–	–	–	–
B2	0.048	0.03	0.041	0.047	0.024	> 6	5	< 5e-06	1e+06	0.338	8.8e-05	260000
B3	0.213	0.064	0.256	0.214	0.116	> 6	–	–	–	–	–	–
B4	0.075	0.049	0.058	0.097	0.034	2.7	–	–	–	–	–	–
